# Assay: label from the status in PepcDB records
row,Sequence,protein production
1,MVDISLIIGGPQGGGIESAGQIAIKSMVLLGYEVLGSREYHSNIMGAHSYYHLRVQQHRPRSLKLPVDGVLALDAESVFTHFRDVRPGGILVYDPGTKSTRVDAIQPMAGPLKKRLKSLFDSRGMQPVVESAVKLAEEAGARIVGLPLKEMLKTLSERTGAPVARVSRALNTLGLASMLYMLGVPVEYIEKAISLQFAGKEKVINMNVEAVRIAVDYVREAFGEPESRLPPGPRRGQTMMVATGNDLVAMGKIVGGLGVITYYPITPSSDEALYVEKHSYISIDGPLAEKLGYDKIAVAIVQMEDELASINAVLGAAAAGARASTTTSGPGFSLMNEAVSLAVEAEIPVVVTLWMRAGPSTGMPTRTGQQDLLHSIFSGHGDAPKIVLASGDHVEAFYDAIKAFNWAEEFQTPVIHLLDKYLASSMVSLAREDLDPSKVPITRGKLLDNPPADYRRYEVVEDGISPRARLGSATMVITGLEHDEYGYATEDPVMREIMMFKRERKFKVIEERIPDEEKAVLHGDSEASVALVSFGSTKQPILEALEMLRDEGVRARFAQVRLLYPFPGRLVEEMLEGVEKVIMVEQNLLGQLAMLLRAHTSIKPDSSIVKINGRPLYSFEVAGAVKRILETGEERVVVSHGS,failed
2,MVDKGVVNNVDECVEGTDHCHIDAICQNTPRSYKCICKSGYTGDGKHCKDVDECEREDNAGCVHDCVNIPGNYRCTCYDGFHLAHDGHNCLDVDECAEGNGGCQQSCVNMMGSYECHCRDGFFLSDNQHTCIQRPEEGMNCMNKNHGCAHICRETPKGGIACECRPGFELTKNQRDCKLTCNYGNGGCQHTCDDTEQGPRCGCHVKFVLHTDGKTCIETCAVNNGGCDSKCHDAATGVHCSCPVGFMLQPDRKTCKDIDECRLHNGGCDHICRNTVGSFECSCKKGYKLLINERSCQDIDECSFDRTCDHMCVNTPGSFQCLCHRGYLLYGISHCGDVDECSINKGGCRFGCINTPGSYQCTCPAGQGRLHWNGKDCTEPVKCQSSSGASKAMLSCSRSGKKDTCALTCPSRARFLPESENGFTVSCGTPSPKAAAGRAIHPGNSTISNSCHEAAVLPVKQRASFKIKDAKCRLHLRNKGKAEEASGRTPGPGGASCSDCQVTFIHLKCDSSRKGKGRRARTPPGKEVTRLTLELEAEVRAEETTAGCGLTCLRQRMERRLKGSLKMLRKSINQDRFLLRLAGLDYELAHKPGLAAGDRAELVEVCRPGQHRAGTKCVSCPQGTYYHGQTEQCVPCPAGTFQEREGQLSCDLCPGSDAHGPLGATNVTTCAGQCPPGQHSGDGFKPCQPCPRGTYQPEAGRTLCFPCGGGLTTKHEGAVSFQDCDTKVQCSPGHYYNTSIHRCIRCAVGSYQPDFRQNFCTRCPGNTSADFDGSTSVAQCKNRQCGGELGEFTGYIESPNYPGNYPAGVECIWNINPPPKRKILIVVPEIFLPSEDECGDVLVMRKNSSPSSITTYETCQTYERPIAFTARSRKLWINFKTSEANSARGFQIPYVTYDEDYEQLVEDIVRDGRLYASENHQEILKDKKLIKAFFEVLAHPQNYFKYTEKHKEMLPKSFIKLLRSKVSSFLRPYK,failed
3,MVDLGKQRDHNYHHMQIITTPTSVDCSREFRHRRTLRSLIECMIPYCCTYQQQPYQNDTLSVSSTSSSSSSSDHSSSSQSSSTVSGTFFGHRRGRVSFCLQDAAVGSSPLLLLELAVPTAALAKEMDEEGVLRIALECDRRRSSNSRSSSIFDVPVWSMFCNGRKMGFAVRRKVTENDAVFLRMMQSVSVGAGVVPSEEEDQMLYLRARFERVTGSSDSESFHMMNPGGSYGQELSIFLLRS,failed
4,MVDNKKKRQYPLVPLSVIQSALEEDPISIKMILKHYHSYIVKLCLTNGFNEAEQFITYVDEYMLRQLEIKLIEAILKFKINLEHHHHHH,failed
5,MVDPNEHKKAVKTQQQDDEQTFEAVARAWHTDNKKWSESHAERILKSLSDNIFPAIGGTHVANLKTRDLLTPIKSVERSGRLEVAKRLKQRVTAIMTYAVQNGLIDYNPAQDMAGAIMPGKVEHRLEHHHHHH,failed
6,MVDQQDTFAEYFKNWYIFYKKPKVSKVTLNRYQYTYNVINEYFGNKLLKDITRANYQKFIVKYGQNHSPNTMKMINNCIKACVKNAVYDEEIKKDFTYNIELISNRLEHHHHHH,failed
7,MVDSHVHTPLCGHAEGHPEAYLEEARAKGLKGVVFTDHSPMPPWYDPESRMRLEALPFYLLALERVRERAQDLYVGIGLEADFHPGTEGFVAQLLRRYPFDYVIGSVHYLGAWPLDHPDHQEEYAWRDLKEVFRAYFQEVEKAARSGLFHAIGHLDLPKKFGHRLPEEALLELAEPALRAVAEAGLFLDVNTAGLRRPAKEVYPAPALLRRARELGIGLVLGSDAHRPEEVGFAFPEVQALLAGLGFREAYYFVEGSPVAYPLSRASLEHHHHHH,not failed
